Experimental data: the Human Domainome abundance scans (Beltran et al. 2025)

B1: Gamma-crystallin D, residues 90 to 170; numbered along this chain, P07320 (parent)
chain: IRLYEREDYRGQMIEFTEDCSCLQDRFRFNEIHSLNVLEGSWVLYELSNYRGRQYLLMPGDYRRYQDWGATNARVGSLRRV

Variants of: B1
Experiment: abundance fitness (aPCA) (normalised: wild type 0, dead -1); higher = more abundant; growth selection in yeast, the domain comes from the species named
Settings: Homo sapiens

Abundance fitness, by site and new letter:
W68: Y -0.163, T 0.149, K 0.16, Q -0.355
Y65: T -0.076, E 0.192, G 0.159, W 0.005, K -0.113, A -0.093, V -0.047, I 0.053, F -0.174, D 0.044, L 0.093, S 0.041, Q -0.028, N 0.096, H 0.099, M 0.089, C -0.144, P 0.051
R64: W 0.095, P -0.423, Y 0.035, N 0.159, D 0.167, V -0.044, T 0.063, F 0.04, M -0.11, C -0.141, G -0.017, E -0.226, A -0.019, Q -0.031, K -0.287
S77: F -0.879, T -0.921, A -0.168, W -1.01, C -0.28, D -1.03, E -0.868, G -0.367, Q -1.05, R -1.01, V -1.13, P -1.04, L -0.819, K -0.654
R79: I -0.175, P -0.93, E 0.113, C -0.355, T -0.117, K -0.048, M 0.086, A 0.096, D -0.552, S 0.068, N -0.316, Y -0.153, W -0.36, F -0.214, G -0.032, Q 0.049
A70: V 0.044, W 0.032, H 0.045, S -0.025, D 0.18, F 0.048, C 0.074, R 0.095, M 0.109, G -0.047, N 0.136, P 0.047, E 0.165, I 0.024, L 0.045, Q -0.032, Y -0.033
G76: D -0.068, W -0.441, T -0.109, C -0.287, A 0.011, M 0.111, Y -0.221, K -0.112, E 0.008, H 0.11, N -0.125, R 0.024, S -0.027
T71: W 0.001, P -0.049, Y -0.201, A 0.029, H 0.05, V -0.103, I 0.043, L 0.04, C 0.008, M -0.125, K -0.003, N 0.054, F -0.044, G -0.014
A73: W 0.123, V 0.066, S -0.023, G 0.004, P -0.175, R 0.121, Y 0.003, N 0.05, H 0.151, Q 0.09, D 0.104, F -0.173, M 0.156, L 0.067, C 0.005, T 0.126, E -0.012
Y62: Q -0.301, A 0.153, S 0.016, L 0.178, P -0.919, N -0.125, D -0.904, C 0.264, G -0.242, E -0.401, M 0.096, T -0.251, H -0.076, V 0.041, W 0.026, K 0.11, R 0.229, I -0.061, F -0.147
N72: G -0.001, W 0.233, R 0.026, H -0.083, L 0.149, C -0.078, A -0.08, K -0.065, I 0.21, D -0.016, V 0.065, F 0.118, Q 0.03, P 0.03, M 0.131, S 0.051, Y 0.173
V81: A -0.093, I -0.054, L 0.081
